Article PMC8748874, “Structures of the human peroxisomal fatty acid transporter ABCD1 in a lipid environment” (Communications Biology, 2022)

System: T1, Nc1ncnc2c1ncn2[C@@H]1O[C@H](COP(=O)(O)OP(=O)(O)OP(=O)(O)O)[C@@H](O)[C@H]1O
T1 construct: full length, codon-optimized synthetic gene; C-terminal eYFP-Rho1D4 tag cut off with 3C protease; HEK293 Flp-In TREX; homodimer; in DDM/CHS, liposomes or MSP1D1 nanodiscs
Test: molybdate-based colorimetric ATPase assay
Assay type: biochemical, Homo sapiens
Settings: BPL/Chol liposomes and nanodiscs, 10 mM MgCl2, pH 7.5, 37 °C, ATP 0.0625 to 8 mM

For ABCD1 (ALDP) (Homo sapiens), the Km was “about 0.3 mM”.
